“Also recorded” adds a separate entry of the source.
How the values were obtained:
[1] = tested on: muscle derived stromal cells (MDSCs); test: osteogenic activity of supernatant from stimulated PBMCs: alkaline phosphatase in MDSCs over 7 d; format: cell-based, human; settings: S100 A8 at indicated doses (μg/ml) or LPS 10 ng/ml; MDSCs 7 d
Description: FIG. 15. Supernatant from PBMCs stimulated with S100A8 but not LPS is osteogenic. PBMCs at 1*10^5/ml were stimulated with S100 A8 at indicated doses (μg/ml), or LPS at 10 ng/ml. The supernatants were harvested and filter-sterilised through a 0.2 μm filter. MDSCs were cultured in this S100 A8-stimulated supernatant over 7 d and alkaline phosphatase levels quantified.
FIG. 16. Osteogenic activity of supernatant from human monocytes exposed to varying doses of LPS.

PBMCs [2] = test: IL-6 and IL-1β production by PBMCs stimulated with S100 A8 (ELISA); format: cell-based, human; settings: S100 A8 0.5 μg/ml with antibody to TLR4, TLR2 or sRAGE, 14 hours
Description: FIG. 13. […] PBMCs at 1*10^5/ml were incubated in 10% FCS with S100 A8 0.5 μg/ml with the addition of either antibody to TLR4, TLR2 or isotype controls, or sRAGE over 14 hours. IL-6 (A) and […] (B) levels were determined by ELISA.

tibial fracture = test: murine tibial fracture model: callus mineralization (microCT) and histology after local administration at fracture site; format: in vivo, mouse; settings: exogenous alarmin at fracture site days 0 and 1 (rmHMGB1 20 μL at 50 ng/ml); day 28 microCT
Description: Percentage callus mineralization was determined from the fracture site to 1 mm proximally (mean+/−SEM). FIG. 5. Dose response of exogenous TNF-α in vivo. 20 μL of PBS with rhTNF-α at the corresponding dose was injected at the fracture site at days 0 and 1 in C57BI/6 mice. At day 28, mice were harvested and limbs scanned by microCT in a blinded fashion. Percentage callus mineralization was determined from the fracture site to 1 mm proximally (threshold density of 350 mg/cm^3). * p<0.05, ** p<0.01. FIG. 7A. […] Percentage callus mineralization was determined from the fracture site to 1 mm proximally (mean+/−SEM). FIG. 18. […] C57BI6 mice were subjected to fracture model with addition of 20 μL of rmHMGB1 at 50 ng/ml at the fracture site at days 0 and 1 compared to controls. Addition of exogenous S100A8 or S100A9 or S100A8/9 had no effect, possibly because the fracture environment may already contain optimal amounts of S100 A8 or A9 proteins. All mice were harvested at day 28 and limbs scanned by microCT in a blinded fashion. Percentage callus mineralization was determined from the fracture site to 1 mm proximally (mean+/−SEM). […] Inflammation plays a vital role in early fracture repair^11,12. In murine models, TNF-α, IL-1 and IL-6 are expressed at the fracture site within 24 hours of injury^13,14. Biphasic expression of TNF-α and IL-1β appears to be linked to the initiation of fracture repair and later to endochondral maturation^14,15. In our murine model, callus mineralization at day 28 was enhanced when TNF-α, at a concentration of 50 ng/kg was injected locally following injury (day 0) and 24 hours later.

PBMCs [3] = test: TNF-α production by PBMCs (ELISA, 14 hours); format: cell-based, human; settings: PBMCs 1*10^5/ml, 10% FCS, alarmin at indicated doses
Description: FIG. 10. […] (A) PBMCs at 1*10^5/ml were incubated in 10% fetal calf serum (FCS) with S100 A8 at indicated doses. […] (B) PBMCs at 1*10^5/ml were incubated in 10% FCS with S100 A8 at 0.5 μg/ml with the addition of either antibody to TLR4, TLR2 or isotype controls (not shown), or sRAGE over 14 hours. TNF-α levels were determined by ELISA.
FIG. 12. […] PBMCs at 1*10^5/ml were incubated in 10% FCS with S100 A8, S100 A9 or S100 A12 at the indicated doses over 14 hours. TNF-α levels were determined by ELISA.
FIG. 17. […] PBMCs at 1*10^5/ml were incubated in 10% FCS with HMGB1 or LPS at the indicated doses over 14 hours; TNF-α levels were determined by ELISA.

B1: S100A8: alarmin; rhS100A8 added to human PBMCs (protein, UniProt P05109 1-93, looked up)
Protein S100-A8: MLTELEKALNSIIDVYHKYSLIKGNFHAVYRDDLKKLLETECPQYIRKKGADVWFKELDINTDGAVNFQEFLILVIKMGVAAHKKSHEESHKE
With B1 the “osteogenic activity of stimulated PBMC supernatant (alkaline phosphatase)” value [1] was “led to osteogenesis; also recorded: osteogenic”, the “receptor dependence of IL-6 and IL-1β production” value (PBMCs [2]) was “produced by monocytes via TLR4 and also RAGE, but not TLR2” and the “fracture healing / percentage callus mineralization” value (tibial fracture) was “no effect”. The “TNF-α production by PBMCs” value (PBMCs [3]; listed as S100 A8) was “stimulates monocytes to produce TNF-α in a dose dependent manner; also recorded: dose-dependent increase in TNF-α production” and the “TNF-α production by PBMCs” value (PBMCs [3]; listed as rhS100A8) was “resulted in production of TNF-α”.
